Patent publication US9657279B2, “Biological systems for production of commercially valuable compounds” (priority 2007, dated 2017)

B1: B. maritima: methyl halide transferase from Batis maritima, SEQ ID NO: 3 (protein, listed as Batis maritima)
chain: MSTVANIAPVFTGDCKTIPTPEECATFLYKVVNSGGWEKCWVEEVIPWDLGVPTPLVLHLVKNNALPNGKGLVPGCGGGYDVVAMANPERFMVGLDISENALKKARETFSTMPNSSCFSFVKEDVFTWRPEQPFDFIFDYVFFCAIDPKMRPAWGKAMYELLKPDGELITLMYPITNHEGGPPFSVSESEYEKVLVPLGFKQLSLEDYSDLAVEPRKGKEKLARWKKMNN

Assays:
RAD50Δ mutant = assay type: cell-based, S. cerevisiae; conditions: RAD50Δ mutant compared with W303a, OD600 at 24 hours
Description: (§1) FIG. 11A-D: Methyl iodide production in recombinant S. cerevisiae. FIG. 11A. CH3I production pathway. The B. maritima MHT is expressed with a N-terminal vacuole targeting tag. The […] MHT methylates iodide ions using SAM as a methyl donor. FIG. 11B, CH3I measured in culture headspace over time. Activity on glucose-grown cells is shown. FIG. 11C, CH3I yields in grams per liter of culture per day. Values for the culturable red algae E. muricata are taken from the literature. Yields from B. maritima MHT-expressing E. coli and S. cerevisiae are calculated by comparison to standard curves. FIG. 11D, CH3I toxicity in yeast. Exponential phase cultures were diluted to an OD600 of 0.05 and commercially available CH3I was added. OD600 was measured at 24 hours of growth. The W303a lab strain is shown in filled boxes, the DNA methylation-sensitive RAD50Δ mutant is shown in open boxes.
(§2) Individual colonies were inoculated in YP media with 2% glucose and grown overnight. Cultures were diluted to an OD600 of 0.05 and methyl iodide was added to the specified amount. […] OD600 was measured by spectrometry with YP media used as a blank. Each data point was performed in triplicate. The RAD50Δ mutant was obtained from the Saccharomyces Genome Deletion Project (Invitrogen).

S. cerevisiae W303a = test: Methyl iodide toxicity assay in yeast; assay type: cell-based; conditions: W303a lab strain, OD600 at 24 hours of growth, commercially available CH3I added
Description: as §1, §2

E. coli [1] = tested on: E. coli
Description: Methyl halide production can be measured by gas chromatography. In the experiments described below an Agilent gas chromatography/mass spectrometry (GC/MS) system was used. Most often the “AIR.U” tune file, uses an ionization voltage of 1341. In some experiments an ionization voltage of about 1250 was used. A solvent delay of 0 was set and the scan parameters set to 15-100 MW. The injection port and column were preset to 50° C. The sample to be tested was mixed by shaking for a few seconds. 100 μL of the headspace gas was extracted with a gas-tight syringe. The sample gas was manually injected into the GCMS injection port. The GCMS program was started with the following settings: 1:00 at 50° C.; a ramp of 10° C. per min to 70° C. (the sample typically came off at ˜52° C.); 1:00 at 70° C. The column was then cleaned (ramp to 240° C. for 2 minutes). The sample peak was identified by extracting the GC peak corresponding to 50MW (−0.3, +0.7). This peak was integrated to produce the “GC 50MW” data.
For each strain a single colony was picked and grown overnight (10-14 hrs) in 20 mL of LB miller in a 30 mL glass test tube with aeration (a loose cap) at 37 C and 250 rpm shaking. The culture was spun down in a swinging bucket centrifuge for 5 min @3000×g. […]

E. coli [2] = conditions: library of 89 genes, 100 mM sodium halide salt, headspace GC-MS
Description: Methyl halide production was sampled by analyzing the headspace gas using GC-MS (Supplementary Information).
Bacteria carrying MHT expression vectors were inoculated from freshly streaked plates and grown overnight. Cells were diluted 100-fold into media containing 1 mM IPTG and 100 mM appropriate sodium halide salt. Culture tubes were sealed with a rubber stopper and grown at 37 degrees for 3 hours. Yeast carrying MHT expression vectors were streaked on uracil dropout plates from freezer stocks (15% glycerol) and grown for 48 hours. Individual colonies were inoculated into 2 mL of synthetic complete uracil dropout media and grown overnight at 30 degrees. Cultures were next inoculated into 100 mL fresh synthetic complete uracil dropout media and grown for 24 hours. […] 10 mL of this concentrated culture was aliquoted into 14 mL culture tubes and sealed with a rubber stopper. Cultures were grown at 30 degrees with 250 rpm shaking.

S. cerevisiae W303 = test: Methyl iodide production by vacuole-targeted MHT in yeast; assay type: cell-based; conditions: N-terminal carboxypeptidase Y tag versus cytosolic enzyme, vector pCM190
Description: In one approach, for illustration and not limitation, the coding sequence of B. maritima methylchloride transferase (MCT) is synthesized and cloned into a high copy vector under the control of a tet-repressible CYC promoter (plasmid pCM190, Gari et al, 1997, Yeast 13:837-48.). The MCT coding sequence is fused to a N-terminal peptide domain from carboxypeptidase Y known to target pendant proteins to the yeast vacuole (amino acid sequence: […] (SEQ ID NO:1), Valls et al., 1990, J Cell Biol. 111:361-8.) This expression system is transformed into S. cerevisiae strain W303a. […] Cultures are grown at 30 degrees with 250 rpm shaking, and methyl iodide production assayed at specified intervals via GC-MS. […] Oven temperature is programmed from 50 degrees (1 min) to 60 degrees (10 degrees/min).
We fused a 16 amino acid vacuolar targeting tag ([…]) from yeast carboxypeptidase Y to the N-terminus of the B. maritima MCT and expressed the enzyme from the vector pCM190. […] We next expressed the cytosolic and vacuolar targeted enzymes in a VPS33A background, which is unable to form functional vacuoles.

Molecule	sensitivity to methyl iodide (RAD50Δ mutant)	level up to which yeast were resistant to deleterious methylating effects of methyl iodide (S. cerevisiae W303a) [µg/mL]	methyl bromide production (E. coli [1]; 165 mM NaBr, 100 uM IPTG, 1.5 hours, headspace GC/MS)	specificity of methyl halide production (E. coli [1]; methyl bromide versus methyl iodide)	methyl halide activity on chloride, bromide and iodide (E. coli [2])	increase in methyl iodide production rate by targeting to the vacuole (S. cerevisiae W303) [%]
CI [methyl iodide]	increased sensitivity	> 5000				
B1			best	significant specificity for methyl bromide production	highest activity of all genes on each ion	50
